Source: patent US12679878B2, “CRF2 receptor agonists and their use in therapy” (SANOFI, priority 2020, dated 2026)
Starred links: 1 amine or outer side, 2 acyl side, 3 side chain; linkers in the order of their positions; H or OH if unused. Non-standard residues stand in square brackets, D forms with d. Groups on a side chain read outwards from the residue. No end group written: not given here. *: point of attachment. C18 diacid = O=C(O)CCCCCCCCCCCCCCCCC(=O)*; γGlu = O=C(O)[C@H](CCC(=O)[*:2])N[*:1]; Palmitoyl = CCCCCCCCCCCCCCCC(=O)*; AEEA = NCCOCCOCC(=O)O; Aib = CC(C)(N)C(=O)O

B1: SEQ ID NO: 161 (peptide)
peptide: Ac-IVLSLD[dV]PIKLK([AEEA-AEEA-γGlu-C18 diacid])QILLEQERQE[Aib]EREQAEKNEQILEQV-NH2
SMILES: CC[C@H](C)[C@H](NC(C)=O)C(=O)N[C@H](C(=O)N[C@@H](CC(C)C)C(=O)N[C@@H](CO)C(=O)N[C@@H](CC(C)C)C(=O)N[C@@H](CC(=O)O)C(=O)N[C@@H](C(=O)N1CCC[C@H]1C(=O)N[C@H](C(=O)N[C@@H](CCCCN)C(=O)N[C@@H](CC(C)C)C(=O)N[C@@H](CCCCNC(=O)COCCOCCNC(=O)COCCOCCNC(=O)CC[C@H](NC(=O)CCCCCCCCCCCCCCCCC(=O)O)C(=O)O)C(=O)N[C@@H](CCC(N)=O)C(=O)N[C@H](C(=O)N[C@@H](CC(C)C)C(=O)N[C@@H](CC(C)C)C(=O)N[C@@H](CCC(=O)O)C(=O)N[C@@H](CCC(N)=O)C(=O)N[C@@H](CCC(=O)O)C(=O)N[C@@H](CCCNC(=N)N)C(=O)N[C@@H](CCC(N)=O)C(=O)N[C@@H](CCC(=O)O)C(=O)NC(C)(C)C(=O)N[C@@H](CCC(=O)O)C(=O)N[C@@H](CCCNC(=N)N)C(=O)N[C@@H](CCC(=O)O)C(=O)N[C@@H](CCC(N)=O)C(=O)N[C@@H](C)C(=O)N[C@@H](CCC(=O)O)C(=O)N[C@@H](CCCCN)C(=O)N[C@@H](CC(N)=O)C(=O)N[C@@H](CCC(=O)O)C(=O)N[C@@H](CCC(N)=O)C(=O)N[C@H](C(=O)N[C@@H](CC(C)C)C(=O)N[C@@H](CCC(=O)O)C(=O)N[C@@H](CCC(N)=O)C(=O)N[C@H](C(N)=O)C(C)C)[C@@H](C)CC)[C@@H](C)CC)[C@@H](C)CC)C(C)C)C(C)C
B2: SEQ ID NO: 18 (peptide)
peptide: IVLSLD[dV]PTKLK([γGlu-Palmitoyl])QKLLKQERQRKEREQAEKNKRILERV-NH2
modifications: N-terminus assumed
SMILES: CCCCCCCCCCCCCCCC(=O)N[C@@H](CCC(=O)NCCCC[C@H](NC(=O)[C@H](CC(C)C)NC(=O)[C@H](CCCCN)NC(=O)[C@@H](NC(=O)[C@@H]1CCCN1C(=O)[C@H](NC(=O)[C@H](CC(=O)O)NC(=O)[C@H](CC(C)C)NC(=O)[C@H](CO)NC(=O)[C@H](CC(C)C)NC(=O)[C@@H](NC(=O)[C@@H](N)[C@@H](C)CC)C(C)C)C(C)C)[C@@H](C)O)C(=O)N[C@@H](CCC(N)=O)C(=O)N[C@@H](CCCCN)C(=O)N[C@@H](CC(C)C)C(=O)N[C@@H](CC(C)C)C(=O)N[C@@H](CCCCN)C(=O)N[C@@H](CCC(N)=O)C(=O)N[C@@H](CCC(=O)O)C(=O)N[C@@H](CCCNC(=N)N)C(=O)N[C@@H](CCC(N)=O)C(=O)N[C@@H](CCCNC(=N)N)C(=O)N[C@@H](CCCCN)C(=O)N[C@@H](CCC(=O)O)C(=O)N[C@@H](CCCNC(=N)N)C(=O)N[C@@H](CCC(=O)O)C(=O)N[C@@H](CCC(N)=O)C(=O)N[C@@H](C)C(=O)N[C@@H](CCC(=O)O)C(=O)N[C@@H](CCCCN)C(=O)N[C@@H](CC(N)=O)C(=O)N[C@@H](CCCCN)C(=O)N[C@@H](CCCNC(=N)N)C(=O)N[C@H](C(=O)N[C@@H](CC(C)C)C(=O)N[C@@H](CCC(=O)O)C(=O)N[C@@H](CCCNC(=N)N)C(=O)N[C@H](C(N)=O)C(C)C)[C@@H](C)CC)C(=O)O
B3: SEQ ID NO: 159 (peptide)
peptide: Ac-IVLSLD[dV]PIKLK([AEEA-AEEA-γGlu-C18 diacid])QILLEQERQE[Aib]QREQAEKNKQILEQV-NH2
SMILES: CC[C@H](C)[C@H](NC(C)=O)C(=O)N[C@H](C(=O)N[C@@H](CC(C)C)C(=O)N[C@@H](CO)C(=O)N[C@@H](CC(C)C)C(=O)N[C@@H](CC(=O)O)C(=O)N[C@@H](C(=O)N1CCC[C@H]1C(=O)N[C@H](C(=O)N[C@@H](CCCCN)C(=O)N[C@@H](CC(C)C)C(=O)N[C@@H](CCCCNC(=O)COCCOCCNC(=O)COCCOCCNC(=O)CC[C@H](NC(=O)CCCCCCCCCCCCCCCCC(=O)O)C(=O)O)C(=O)N[C@@H](CCC(N)=O)C(=O)N[C@H](C(=O)N[C@@H](CC(C)C)C(=O)N[C@@H](CC(C)C)C(=O)N[C@@H](CCC(=O)O)C(=O)N[C@@H](CCC(N)=O)C(=O)N[C@@H](CCC(=O)O)C(=O)N[C@@H](CCCNC(=N)N)C(=O)N[C@@H](CCC(N)=O)C(=O)N[C@@H](CCC(=O)O)C(=O)NC(C)(C)C(=O)N[C@@H](CCC(N)=O)C(=O)N[C@@H](CCCNC(=N)N)C(=O)N[C@@H](CCC(=O)O)C(=O)N[C@@H](CCC(N)=O)C(=O)N[C@@H](C)C(=O)N[C@@H](CCC(=O)O)C(=O)N[C@@H](CCCCN)C(=O)N[C@@H](CC(N)=O)C(=O)N[C@@H](CCCCN)C(=O)N[C@@H](CCC(N)=O)C(=O)N[C@H](C(=O)N[C@@H](CC(C)C)C(=O)N[C@@H](CCC(=O)O)C(=O)N[C@@H](CCC(N)=O)C(=O)N[C@H](C(N)=O)C(C)C)[C@@H](C)CC)[C@@H](C)CC)[C@@H](C)CC)C(C)C)C(C)C
B4: SEQ ID NO: 160 (peptide)
peptide: Ac-IVLSLD[dV]PIKLK([AEEA-AEEA-γGlu-C18 diacid])QILLEQERQE[Aib]EREQAETNKQILEQV-NH2
SMILES: CC[C@H](C)[C@H](NC(C)=O)C(=O)N[C@H](C(=O)N[C@@H](CC(C)C)C(=O)N[C@@H](CO)C(=O)N[C@@H](CC(C)C)C(=O)N[C@@H](CC(=O)O)C(=O)N[C@@H](C(=O)N1CCC[C@H]1C(=O)N[C@H](C(=O)N[C@@H](CCCCN)C(=O)N[C@@H](CC(C)C)C(=O)N[C@@H](CCCCNC(=O)COCCOCCNC(=O)COCCOCCNC(=O)CC[C@H](NC(=O)CCCCCCCCCCCCCCCCC(=O)O)C(=O)O)C(=O)N[C@@H](CCC(N)=O)C(=O)N[C@H](C(=O)N[C@@H](CC(C)C)C(=O)N[C@@H](CC(C)C)C(=O)N[C@@H](CCC(=O)O)C(=O)N[C@@H](CCC(N)=O)C(=O)N[C@@H](CCC(=O)O)C(=O)N[C@@H](CCCNC(=N)N)C(=O)N[C@@H](CCC(N)=O)C(=O)N[C@@H](CCC(=O)O)C(=O)NC(C)(C)C(=O)N[C@@H](CCC(=O)O)C(=O)N[C@@H](CCCNC(=N)N)C(=O)N[C@@H](CCC(=O)O)C(=O)N[C@@H](CCC(N)=O)C(=O)N[C@@H](C)C(=O)N[C@@H](CCC(=O)O)C(=O)N[C@H](C(=O)N[C@@H](CC(N)=O)C(=O)N[C@@H](CCCCN)C(=O)N[C@@H](CCC(N)=O)C(=O)N[C@H](C(=O)N[C@@H](CC(C)C)C(=O)N[C@@H](CCC(=O)O)C(=O)N[C@@H](CCC(N)=O)C(=O)N[C@H](C(N)=O)C(C)C)[C@@H](C)CC)[C@@H](C)O)[C@@H](C)CC)[C@@H](C)CC)C(C)C)C(C)C
B5: SEQ ID NO: 158 (peptide)
peptide: Ac-IVLSLD[dV]PIKLK([AEEA-AEEA-γGlu-C18 diacid])QILLEQERQK[Aib]QREQAEKNKQILEQV-NH2
SMILES: CC[C@H](C)[C@H](NC(C)=O)C(=O)N[C@H](C(=O)N[C@@H](CC(C)C)C(=O)N[C@@H](CO)C(=O)N[C@@H](CC(C)C)C(=O)N[C@@H](CC(=O)O)C(=O)N[C@@H](C(=O)N1CCC[C@H]1C(=O)N[C@H](C(=O)N[C@@H](CCCCN)C(=O)N[C@@H](CC(C)C)C(=O)N[C@@H](CCCCNC(=O)COCCOCCNC(=O)COCCOCCNC(=O)CC[C@H](NC(=O)CCCCCCCCCCCCCCCCC(=O)O)C(=O)O)C(=O)N[C@@H](CCC(N)=O)C(=O)N[C@H](C(=O)N[C@@H](CC(C)C)C(=O)N[C@@H](CC(C)C)C(=O)N[C@@H](CCC(=O)O)C(=O)N[C@@H](CCC(N)=O)C(=O)N[C@@H](CCC(=O)O)C(=O)N[C@@H](CCCNC(=N)N)C(=O)N[C@@H](CCC(N)=O)C(=O)N[C@@H](CCCCN)C(=O)NC(C)(C)C(=O)N[C@@H](CCC(N)=O)C(=O)N[C@@H](CCCNC(=N)N)C(=O)N[C@@H](CCC(=O)O)C(=O)N[C@@H](CCC(N)=O)C(=O)N[C@@H](C)C(=O)N[C@@H](CCC(=O)O)C(=O)N[C@@H](CCCCN)C(=O)N[C@@H](CC(N)=O)C(=O)N[C@@H](CCCCN)C(=O)N[C@@H](CCC(N)=O)C(=O)N[C@H](C(=O)N[C@@H](CC(C)C)C(=O)N[C@@H](CCC(=O)O)C(=O)N[C@@H](CCC(N)=O)C(=O)N[C@H](C(N)=O)C(C)C)[C@@H](C)CC)[C@@H](C)CC)[C@@H](C)CC)C(C)C)C(C)C
B6: SEQ ID NO: 157 (peptide)
peptide: Ac-IVLSLD[dV]PIKLK([AEEA-AEEA-γGlu-C18 diacid])QILLEQARQK[Aib]QREQAEKNKQILEQV-NH2
SMILES: CC[C@H](C)[C@H](NC(C)=O)C(=O)N[C@H](C(=O)N[C@@H](CC(C)C)C(=O)N[C@@H](CO)C(=O)N[C@@H](CC(C)C)C(=O)N[C@@H](CC(=O)O)C(=O)N[C@@H](C(=O)N1CCC[C@H]1C(=O)N[C@H](C(=O)N[C@@H](CCCCN)C(=O)N[C@@H](CC(C)C)C(=O)N[C@@H](CCCCNC(=O)COCCOCCNC(=O)COCCOCCNC(=O)CC[C@H](NC(=O)CCCCCCCCCCCCCCCCC(=O)O)C(=O)O)C(=O)N[C@@H](CCC(N)=O)C(=O)N[C@H](C(=O)N[C@@H](CC(C)C)C(=O)N[C@@H](CC(C)C)C(=O)N[C@@H](CCC(=O)O)C(=O)N[C@@H](CCC(N)=O)C(=O)N[C@@H](C)C(=O)N[C@@H](CCCNC(=N)N)C(=O)N[C@@H](CCC(N)=O)C(=O)N[C@@H](CCCCN)C(=O)NC(C)(C)C(=O)N[C@@H](CCC(N)=O)C(=O)N[C@@H](CCCNC(=N)N)C(=O)N[C@@H](CCC(=O)O)C(=O)N[C@@H](CCC(N)=O)C(=O)N[C@@H](C)C(=O)N[C@@H](CCC(=O)O)C(=O)N[C@@H](CCCCN)C(=O)N[C@@H](CC(N)=O)C(=O)N[C@@H](CCCCN)C(=O)N[C@@H](CCC(N)=O)C(=O)N[C@H](C(=O)N[C@@H](CC(C)C)C(=O)N[C@@H](CCC(=O)O)C(=O)N[C@@H](CCC(N)=O)C(=O)N[C@H](C(N)=O)C(C)C)[C@@H](C)CC)[C@@H](C)CC)[C@@H](C)CC)C(C)C)C(C)C

molecular target: human corticotropin-releasing factor 2α (CRF2 α receptor) (human), Q13324; assay: cell-based or functional assay
Sequence (Q13324 20-411): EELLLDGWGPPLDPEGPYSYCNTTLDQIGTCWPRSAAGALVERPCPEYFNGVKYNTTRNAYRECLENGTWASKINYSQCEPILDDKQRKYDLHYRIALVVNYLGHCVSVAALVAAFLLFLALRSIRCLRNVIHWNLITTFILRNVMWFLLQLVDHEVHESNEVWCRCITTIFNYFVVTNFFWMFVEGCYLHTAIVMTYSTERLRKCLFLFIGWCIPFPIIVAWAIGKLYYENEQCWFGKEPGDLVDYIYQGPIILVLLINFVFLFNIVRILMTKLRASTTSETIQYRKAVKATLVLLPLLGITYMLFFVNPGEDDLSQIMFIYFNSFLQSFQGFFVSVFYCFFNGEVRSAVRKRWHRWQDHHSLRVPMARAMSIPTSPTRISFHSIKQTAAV

| Binder | EC50 [nM], 0% HSA | EC50 [nM], 0.1% HSA |
| --- | --- | --- |
| B1 | 36 nM | 977 nM |
| B2 | 0.03 nM |  |
| B3 | 1.27 nM | 27.4 nM |
| B4 | 8.56 nM | 28.9 nM |
| B5 | 0.42 nM | 5.63 nM |
| B6 | 0.12 nM | 2.53 nM |
